Experimental data: patent US20210380710A1
Values belong to the substance of their own block, whether it stands above or below them.

Columns and labels:
[1] = biological target: human CD20 on the cell surface (Raji, Ramos, Namalwa cells) (human) (UniProt P11836); test: FACS affinity on Ramos cells, FITC bead quantitation
[2] = biological target: human CD20 on the cell surface (Raji, Ramos, Namalwa cells) (human) (UniProt P11836); test: flow cytometry on Raji cells
[3] = biological target: human CD20 on the cell surface (Raji, Ramos, Namalwa cells) (human) (UniProt P11836); test: cell-based or functional assay
[4] = biological target: human CD3 on the cell surface (Jurkat cells) (human) (UniProt P07766); test: flow cytometry on Jurkat cells
[5] = biological target: human CD3 on the cell surface (Jurkat cells) (human) (UniProt P07766); test: FACS affinity on Jurkat cells, FITC bead quantitation; design: Bmax: unit not given here
[6] = biological target: human CD3 on the cell surface (Jurkat cells) (human) (UniProt P07766); test: flow cytometry on Hut78 cells (target on Hut78 not given), antibody 10 ug/ml
[7] = biological target: human CD20 on the cell surface (Raji, Ramos, Namalwa cells) (human) (UniProt P11836); test: flow cytometry on Ramos cells, antibody 10 ug/ml
[8] = biological target: human CD20 on the cell surface (Raji, Ramos, Namalwa cells) (human) (UniProt P11836); test: flow cytometry on Raji cells, antibody 10 ug/ml
[9] = biological target: PD-1.his (Homo sapiens (Human)) (UniProt Q15116); test: ELISA, antigen coated at 2 ug/mL, antibody 10 ug/ml; * specific binding
[10] = biological target: human CD3 on the cell surface (Jurkat cells) (human) (UniProt P07766); test: flow cytometry on Jurkat cells, antibody 10 ug/ml
[11] = biological target: human CD3 on the cell surface (Jurkat cells) (human) (UniProt P07766); test: flow cytometry on Jurkat cells, secondary antibody alone
[12] = biological target: human CD20 on the cell surface (Raji, Ramos, Namalwa cells) (human) (UniProt P11836); test: flow cytometry on Raji cells, secondary antibody alone
[13] = biological target: human CD3 on the cell surface (Jurkat cells) (human) (UniProt P07766); test: flow cytometry on Hut78 cells (target on Hut78 not given), secondary antibody alone
[14] = biological target: human CD20 on the cell surface (Raji, Ramos, Namalwa cells) (human) (UniProt P11836); test: flow cytometry on Ramos cells, secondary antibody alone

Chain of UniProt P07766 (P07766 23-207, chain 1 of 3): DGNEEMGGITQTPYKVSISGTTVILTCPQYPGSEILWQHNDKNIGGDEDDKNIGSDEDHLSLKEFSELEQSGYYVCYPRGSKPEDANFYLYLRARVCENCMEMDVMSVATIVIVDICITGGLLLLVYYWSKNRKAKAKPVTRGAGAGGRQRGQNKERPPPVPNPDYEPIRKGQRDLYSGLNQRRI
Chain of UniProt P07766 (P04234 22-171, chain 2 of 3, further chain): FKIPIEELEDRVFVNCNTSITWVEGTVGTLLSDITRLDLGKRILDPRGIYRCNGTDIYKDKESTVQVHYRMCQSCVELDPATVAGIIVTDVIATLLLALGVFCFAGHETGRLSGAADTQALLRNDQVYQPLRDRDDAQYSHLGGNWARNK
Chain of UniProt P07766 (P09693 23-182, chain 3 of 3, further chain): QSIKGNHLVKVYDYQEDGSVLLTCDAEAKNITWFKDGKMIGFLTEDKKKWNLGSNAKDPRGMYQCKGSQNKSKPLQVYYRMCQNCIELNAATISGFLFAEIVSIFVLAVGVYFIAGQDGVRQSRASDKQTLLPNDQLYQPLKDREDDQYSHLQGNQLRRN
Chain of UniProt P11836 (P11836 whole entry): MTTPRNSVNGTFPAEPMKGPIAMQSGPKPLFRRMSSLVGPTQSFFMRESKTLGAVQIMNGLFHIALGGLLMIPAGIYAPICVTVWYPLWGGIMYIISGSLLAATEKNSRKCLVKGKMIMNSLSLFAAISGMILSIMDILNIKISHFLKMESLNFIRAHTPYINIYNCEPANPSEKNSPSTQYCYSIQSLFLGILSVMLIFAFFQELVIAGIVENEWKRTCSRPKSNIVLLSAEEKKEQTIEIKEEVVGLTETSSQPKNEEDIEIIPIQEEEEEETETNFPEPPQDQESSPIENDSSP
Chain of UniProt Q15116 (Q15116 25-170 limits assumed): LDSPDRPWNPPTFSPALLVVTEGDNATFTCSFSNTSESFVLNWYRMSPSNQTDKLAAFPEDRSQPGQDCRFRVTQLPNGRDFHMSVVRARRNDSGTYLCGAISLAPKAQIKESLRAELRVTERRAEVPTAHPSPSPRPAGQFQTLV

Bmax [1]: 6.8e-10
Kd [1]: 67 nM
EC50 [2]: 41.1 nM
EC50 of T cell activation (CD25 expression), CD4+ cells, in the presence of Raji cells [3]: 0.006 nM
EC50 of T cell activation (CD25 expression), CD8+ cells, in the presence of Raji cells [3]: 0.0183 nM
EC50 [4]: 8.8 nM
Bmax [5]: 1.1e-10
Kd [5]: 30 nM
Substance: BMK4 (REGN1979) (bispecific antibody)
EC50 of bispecific antibody mediated cytotoxicity, NAMALWA, 4 hours FACS based cytotoxicity assay with CD8+ T cells [3]: 0.0318 nM
EC50 of bispecific antibody mediated cytotoxicity, NAMALWA, two hour calcein release assay with CD8+ T cells [3]: 0.026 nM
EC50 of bispecific antibody mediated cytotoxicity, Raji, 4 hours FACS based cytotoxicity assay with CD8+ T cells [3]: 0.00312 nM
EC50 of bispecific antibody mediated cytotoxicity, Raji, two hour calcein release assay with CD8+ T cells [3]: 0.00269 nM
EC50 of bispecific antibody mediated cytotoxicity, Ramos, two hour calcein release assay with CD8+ T cells [3]: 0.00149 nM

FACS MFI [6]: 61
FACS MFI [7]: 68
FACS MFI [8]: 92
absorbance at 450 nm [9]: 3.87
FACS MFI [10]: 25
Substance: Human IgG4K control (antibody)

FACS MFI [6]: 38
FACS MFI [7]: 63
FACS MFI [10]: 22
Substance: Human IgG4L control (antibody)

FACS MFI [11]: 21
FACS MFI [12]: 67
FACS MFI [13]: 28
FACS MFI [14]: 65
Substance: goat anti-human IgG Fc-PE (Jackson, 109-115-098) (antibody)
